Data published in patent US20060160994A1 (STICHTING SANQUIN BLOEDVOORZIENING, published 2006).

Columns and labels:
[1] = target: T1, low density lipoprotein receptor-related protein (LRP), purified and immobilized (UniProt Q07954 20-4544, limits assumed); test: SPR, LRP immobilized (6.7 fmol/mm^2), two classes of binding sites, class B
T1 construct: Purified LRP, amine-coupled to a CM5 sensor chip; also called low density lipoprotein receptor protein; alpha2-macroglobulin receptor
Procedure: (§1) This method is generally known in the art and was employed for the kinetic analysis of the interaction between LRP and receptor-associated protein (RAP) (Hom I, in LRP-ligand interactions: kinetics and structural requirements; Ph.D. thesis, 1997, pp. 65-106, Amsterdam University). […] Subsequently, the channels were incubated with the same buffer at a similar flow so as to enable dissociation.
(§2) The data were analyzed by means of Biacore Evaluation Software (Pharmacia Biosensor AB, Uppsala, Sweden). […] The association and dissociation speed constants (kₒₙ and koff, respectively) were calculated for the two binding sites. These speed constants were subsequently used to obtain the affinity constants (Kd) for these interactions.

[2] = target: T1, low density lipoprotein …; test: SPR, LRP immobilized (6.7 fmol/mm^2), two classes of binding sites, class B; Kd = koff/kon
Procedure: as §1, §2

[3] = target: T1, low density lipoprotein …; test: SPR, LRP immobilized (6.7 fmol/mm^2), two classes of binding sites, class A
Procedure: as §1, §2

[4] = target: T1, low density lipoprotein …; test: SPR, LRP immobilized (6.7 fmol/mm^2), two classes of binding sites, class A; Kd = koff/kon
Procedure: as §1, §2

T1 sequence (Q07954 20-4544 limits assumed, form in doubt): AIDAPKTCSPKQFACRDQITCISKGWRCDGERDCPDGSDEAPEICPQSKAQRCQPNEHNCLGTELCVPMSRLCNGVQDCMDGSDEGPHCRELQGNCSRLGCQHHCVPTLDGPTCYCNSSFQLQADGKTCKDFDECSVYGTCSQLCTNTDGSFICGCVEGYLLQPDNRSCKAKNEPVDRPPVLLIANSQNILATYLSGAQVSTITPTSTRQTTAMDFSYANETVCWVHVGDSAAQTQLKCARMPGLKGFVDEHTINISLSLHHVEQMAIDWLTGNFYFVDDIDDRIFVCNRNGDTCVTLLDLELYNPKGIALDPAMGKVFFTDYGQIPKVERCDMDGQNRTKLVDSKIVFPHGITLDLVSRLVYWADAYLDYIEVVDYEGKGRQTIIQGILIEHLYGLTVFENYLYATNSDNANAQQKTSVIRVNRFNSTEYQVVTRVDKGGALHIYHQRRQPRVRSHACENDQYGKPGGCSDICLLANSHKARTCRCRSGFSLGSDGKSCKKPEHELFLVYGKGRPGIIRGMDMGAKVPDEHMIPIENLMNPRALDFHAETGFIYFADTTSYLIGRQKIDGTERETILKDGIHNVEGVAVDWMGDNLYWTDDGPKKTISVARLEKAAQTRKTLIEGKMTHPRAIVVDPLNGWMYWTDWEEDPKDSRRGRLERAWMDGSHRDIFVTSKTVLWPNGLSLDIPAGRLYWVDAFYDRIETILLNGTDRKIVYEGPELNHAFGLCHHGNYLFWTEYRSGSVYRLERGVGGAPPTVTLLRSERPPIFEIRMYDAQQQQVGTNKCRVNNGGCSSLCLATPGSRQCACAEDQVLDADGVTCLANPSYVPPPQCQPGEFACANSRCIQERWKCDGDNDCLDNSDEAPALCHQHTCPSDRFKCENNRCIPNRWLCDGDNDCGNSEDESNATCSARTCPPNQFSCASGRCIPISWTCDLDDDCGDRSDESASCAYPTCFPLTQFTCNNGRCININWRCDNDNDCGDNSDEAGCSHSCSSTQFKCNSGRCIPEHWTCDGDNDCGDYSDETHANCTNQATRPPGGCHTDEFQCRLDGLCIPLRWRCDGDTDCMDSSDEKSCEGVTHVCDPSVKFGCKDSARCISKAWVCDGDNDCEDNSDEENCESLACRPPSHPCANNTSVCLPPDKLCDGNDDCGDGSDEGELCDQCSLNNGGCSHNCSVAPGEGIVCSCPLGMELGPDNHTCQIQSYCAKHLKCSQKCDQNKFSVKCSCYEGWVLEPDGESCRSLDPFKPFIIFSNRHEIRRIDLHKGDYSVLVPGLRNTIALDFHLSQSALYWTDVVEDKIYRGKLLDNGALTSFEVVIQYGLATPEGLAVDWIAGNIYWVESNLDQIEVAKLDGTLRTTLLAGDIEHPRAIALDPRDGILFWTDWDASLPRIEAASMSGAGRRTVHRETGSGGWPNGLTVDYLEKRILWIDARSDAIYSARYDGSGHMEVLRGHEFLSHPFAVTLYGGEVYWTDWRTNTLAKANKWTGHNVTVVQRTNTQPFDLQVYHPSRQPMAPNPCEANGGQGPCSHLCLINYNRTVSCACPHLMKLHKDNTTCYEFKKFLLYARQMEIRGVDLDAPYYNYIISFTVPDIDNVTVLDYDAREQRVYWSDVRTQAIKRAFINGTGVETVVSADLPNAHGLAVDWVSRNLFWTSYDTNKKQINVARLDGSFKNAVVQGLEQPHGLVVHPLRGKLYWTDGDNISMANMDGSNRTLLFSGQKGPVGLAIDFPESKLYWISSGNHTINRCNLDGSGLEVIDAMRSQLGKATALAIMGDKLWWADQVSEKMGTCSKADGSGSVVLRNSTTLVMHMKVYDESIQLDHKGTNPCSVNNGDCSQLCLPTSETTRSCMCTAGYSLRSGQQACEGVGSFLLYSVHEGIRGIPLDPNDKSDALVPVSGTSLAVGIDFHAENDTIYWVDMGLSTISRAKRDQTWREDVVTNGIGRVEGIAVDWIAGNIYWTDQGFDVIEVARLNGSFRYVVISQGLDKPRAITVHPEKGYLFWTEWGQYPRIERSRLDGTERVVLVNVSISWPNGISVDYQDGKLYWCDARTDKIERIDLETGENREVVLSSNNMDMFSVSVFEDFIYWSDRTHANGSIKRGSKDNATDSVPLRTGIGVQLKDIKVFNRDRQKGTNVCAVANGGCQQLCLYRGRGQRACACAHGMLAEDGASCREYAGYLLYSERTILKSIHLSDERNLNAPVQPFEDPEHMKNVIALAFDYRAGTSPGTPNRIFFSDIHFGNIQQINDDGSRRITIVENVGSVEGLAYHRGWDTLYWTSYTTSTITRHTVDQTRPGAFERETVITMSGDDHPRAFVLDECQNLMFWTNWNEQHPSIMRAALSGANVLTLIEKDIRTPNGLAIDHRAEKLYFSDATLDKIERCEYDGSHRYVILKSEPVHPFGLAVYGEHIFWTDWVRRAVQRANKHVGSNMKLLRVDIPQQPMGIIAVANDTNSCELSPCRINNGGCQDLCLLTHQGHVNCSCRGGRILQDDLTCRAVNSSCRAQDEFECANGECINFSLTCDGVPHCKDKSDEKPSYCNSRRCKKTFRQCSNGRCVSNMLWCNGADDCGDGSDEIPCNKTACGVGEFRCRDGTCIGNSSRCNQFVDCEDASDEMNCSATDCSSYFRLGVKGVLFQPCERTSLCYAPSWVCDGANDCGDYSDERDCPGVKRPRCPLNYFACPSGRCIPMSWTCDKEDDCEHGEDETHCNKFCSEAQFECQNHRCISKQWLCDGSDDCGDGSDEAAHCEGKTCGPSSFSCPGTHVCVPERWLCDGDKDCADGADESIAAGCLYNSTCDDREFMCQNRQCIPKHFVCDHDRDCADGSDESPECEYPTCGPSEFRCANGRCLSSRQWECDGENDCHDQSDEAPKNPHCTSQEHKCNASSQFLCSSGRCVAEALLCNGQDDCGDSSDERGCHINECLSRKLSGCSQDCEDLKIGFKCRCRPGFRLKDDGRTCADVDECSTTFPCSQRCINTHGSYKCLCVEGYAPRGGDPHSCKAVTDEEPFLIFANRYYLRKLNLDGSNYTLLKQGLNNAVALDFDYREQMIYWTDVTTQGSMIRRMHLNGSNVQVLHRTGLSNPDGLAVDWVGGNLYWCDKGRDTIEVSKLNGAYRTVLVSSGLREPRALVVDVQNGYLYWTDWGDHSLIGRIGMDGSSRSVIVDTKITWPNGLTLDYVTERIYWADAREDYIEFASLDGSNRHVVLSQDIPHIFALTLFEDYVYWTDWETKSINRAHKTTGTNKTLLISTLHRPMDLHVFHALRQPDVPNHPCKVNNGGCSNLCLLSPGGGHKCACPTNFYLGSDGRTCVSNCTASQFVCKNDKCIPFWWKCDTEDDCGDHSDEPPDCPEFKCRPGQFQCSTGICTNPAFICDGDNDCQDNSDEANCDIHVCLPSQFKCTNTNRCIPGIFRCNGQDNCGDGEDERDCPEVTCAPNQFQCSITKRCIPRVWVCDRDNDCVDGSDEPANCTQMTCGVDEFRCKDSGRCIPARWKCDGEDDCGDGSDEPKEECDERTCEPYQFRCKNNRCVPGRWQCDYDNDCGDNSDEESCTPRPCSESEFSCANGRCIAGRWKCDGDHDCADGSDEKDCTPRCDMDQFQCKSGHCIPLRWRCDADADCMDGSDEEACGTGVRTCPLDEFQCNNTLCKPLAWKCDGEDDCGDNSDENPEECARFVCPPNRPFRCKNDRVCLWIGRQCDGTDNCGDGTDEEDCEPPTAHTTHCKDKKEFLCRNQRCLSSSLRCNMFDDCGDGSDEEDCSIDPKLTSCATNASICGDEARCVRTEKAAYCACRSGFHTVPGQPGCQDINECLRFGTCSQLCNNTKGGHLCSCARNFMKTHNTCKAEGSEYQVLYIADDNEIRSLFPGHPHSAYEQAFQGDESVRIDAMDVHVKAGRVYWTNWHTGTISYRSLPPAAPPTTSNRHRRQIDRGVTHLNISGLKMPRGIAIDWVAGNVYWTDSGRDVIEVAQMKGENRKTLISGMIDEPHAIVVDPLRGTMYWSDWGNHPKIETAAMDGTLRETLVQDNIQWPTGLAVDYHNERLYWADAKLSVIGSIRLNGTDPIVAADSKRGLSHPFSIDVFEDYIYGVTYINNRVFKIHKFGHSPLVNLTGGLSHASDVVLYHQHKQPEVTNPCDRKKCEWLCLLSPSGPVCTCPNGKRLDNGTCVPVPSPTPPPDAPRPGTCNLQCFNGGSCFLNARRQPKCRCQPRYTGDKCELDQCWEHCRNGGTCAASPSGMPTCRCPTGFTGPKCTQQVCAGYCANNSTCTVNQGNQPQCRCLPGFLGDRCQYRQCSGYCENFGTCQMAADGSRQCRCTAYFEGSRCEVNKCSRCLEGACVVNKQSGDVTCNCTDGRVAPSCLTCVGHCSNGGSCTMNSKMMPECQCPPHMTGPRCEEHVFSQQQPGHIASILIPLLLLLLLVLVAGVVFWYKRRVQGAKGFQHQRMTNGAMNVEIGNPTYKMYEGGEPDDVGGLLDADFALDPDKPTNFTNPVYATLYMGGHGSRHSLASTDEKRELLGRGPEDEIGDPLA

B1: light chain of Factor VIII (other)
chain: EITRTTLQSDQEEIDYDDTISVEMKKEDFDIYDEDENQSPRSFQKKTRHYFIAAVERLWDYGMSSSPHVLRNRAQSGSVPQFKKVVFQEFTDGSFTQPLYRGELNEHLGLLGPYIRAEVEDNIMVTFRNQASRPYSFYSSLISYEEDQRQGAEPRKNFVKPNETKTYFWKVQHHMAPTKDEFDCKAWAYFSDVDLEKDVHSGLIGPLLVCHTNTLNPAHGRQVTVQEFALFFTIFDETKSWYFTENMERNCRAPCNIQMEDPTFKENYRFHAINGYIMDTLPGLVMAQDQRIRWYLLSMGSNENIHSIHFSGHVFTVRKKEEYKMALYNLYPGVFETVEMLPSKAGIWRVECLIGEHLHAGMSTLFLVYSNKCQTPLGMASGHIRDFQITASGQYGQWAPKLARLHYSGSINAWSTKEPFSWIKVDLLAPMIIHGIKTQGARQKFSSLYISQFIIMYSLDGKKWQTYRGNSTGTLMVFFGNVDSSGIKHNIFNPPIIARYIRLHPTHYSIRSTLRMELMGCDLNSCSMPLGMESKAISDAQITASSYFTNMFATWSPSKARLHLQGRSNAWRPQVNNPKEWLQVDFQKTMKVTGVTTQGVKSLLTSMYVKEFLISSSQDGHQWTLFFQNGKVKVFQGNQDSFTPVVNSLDPPLLTRYLRIHPQSWVHQIALRMEVLGCEAQDLY
notes: also called Factor VIII light chain
- koff [1]: 0.0027 s⁻¹
- kon [1]: 72000 M⁻¹ s⁻¹
- Kd [2]: 37 nM
- koff [3]: 0.055 s⁻¹
- kon [3]: 300000 M⁻¹ s⁻¹
- Kd [4]: 182 nM
